Results as given in PMC12681905.

Assays:
[1] = target: recombinant human LONP1 protein (human) (UniProt P36776); assay: SPR; Biacore T200, LONP1 covalently coupled to a CM5 chip; SOD2 from 10 to 0.3125 uM in PBS/0.01 % Tween 20, 20 ul/min; association 240 s, dissociation 420 s
[2] = target: recombinant human LONP1 protein (human) (UniProt P36776); assay: MST; Monolith NT.115; 86 nM NHS-labelled LONP1, SOD2 from 2.85 to 22.8 uM, incubated 10 min; 80 % LED power, 80 % MST
[3] = target: recombinant human LONP1 protein (human) (UniProt P36776); assay: BLI; Octet R8, biotinylated LONP1 on streptavidin 2.0 biosensor; SOD2 at 0, 2.5, 5 and 10 uM for 90 s; steady-state fit

Kd [1]: 0.22 µM
Kd [2]: 1.56 µM
Kd [3]: 13.4 µM
Substance: recombinant human SOD2 protein (from UniProt P04179 25-222) (enzyme)
